According to paper PMC12400190, “Crystal structures of 40- and 71-substitution variants of hydroxynitrile lyase from rubber tree” (Acta Crystallographica Section D: Structural Biology, 2025):

Experiments:
Details in all cases: 5 mM BES pH 7.2, 7-8% (v/v) acetonitrile
[1] = biological target: T1, HbHNL (Hevea brasiliensis, UniProt P52704); test: spectrophotometric ester hydrolysis at […] nm, Michaelis-Menten fit; assay type: biochemical
T1 construct: gene HNL; full length 257 aa; variant structures 8sni (HNL40), 9clr (HNL71); dimer

[2] = biological target: T2, SABP2 (Nicotiana tabacum, UniProt Q6RYA0); test: as above; assay type: biochemical
T2 construct: production of the assayed sample not described in the main text
T2 sequence (Q6RYA0 1-260): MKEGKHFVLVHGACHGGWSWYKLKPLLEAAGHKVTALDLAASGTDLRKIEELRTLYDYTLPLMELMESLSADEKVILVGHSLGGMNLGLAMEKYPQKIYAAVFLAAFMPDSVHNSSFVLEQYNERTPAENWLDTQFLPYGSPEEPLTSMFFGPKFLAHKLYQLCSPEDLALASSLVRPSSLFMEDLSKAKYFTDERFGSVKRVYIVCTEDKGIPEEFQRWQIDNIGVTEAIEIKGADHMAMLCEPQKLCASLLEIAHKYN

[3] = test system: CC(=O)Oc1ccc([N+](=O)[O-])cc1; test: purified protein

T1 sequence (P52704 whole entry): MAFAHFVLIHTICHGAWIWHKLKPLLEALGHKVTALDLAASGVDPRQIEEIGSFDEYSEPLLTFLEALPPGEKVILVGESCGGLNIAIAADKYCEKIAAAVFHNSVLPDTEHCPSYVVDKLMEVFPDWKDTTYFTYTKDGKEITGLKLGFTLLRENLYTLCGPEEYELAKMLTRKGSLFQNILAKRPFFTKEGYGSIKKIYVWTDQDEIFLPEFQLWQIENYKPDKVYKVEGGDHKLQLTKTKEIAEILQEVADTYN

| Compound | Km [1] [mM] | Km [2] [mM] | Km [3] [mM] | kcat [3] [s⁻¹] | kcat/Km [3] [M⁻¹ s⁻¹] |
| --- | --- | --- | --- | --- | --- |
| CC(=O)Oc1ccc([N+](=O)[O-])cc1 [p-nitrophenyl acetate] | 3 ± 0.4 | 2.2 ± 0.2 |  |  |  |
| HbHNL (Hevea brasiliensis; C81L/E79H/F210I/H103V/I12A/I209G/K236M/L121Y/L146M/L148F/L152F/N104A/T11G/T151K/V106F/V118L) |  |  | 0.6 ± 0.2 | 0.00583 ± 0.000167 | 10.7 |
